Starred links: 1 amine or outer side, 2 acyl side, 3 side chain; linkers in the order of their positions; H or OH if unused. Non-standard residues stand in square brackets, D forms with d. *: point of attachment. PEG12 = NCCOCCOCCOCCOCCOCCOCCOCCOCCOCCOCCOCCOCCC(=O)O; Oic = O=C(O)[C@@H]1C[C@@H]2CCCC[C@@H]2N1; Phe(4-Cl) = N[C@@H](Cc1ccc(Cl)cc1)C(=O)O; γGlu = O=C(O)[C@H](CCC(=O)[*:2])N[*:1]; NMeR = CN[C@@H](CCCNC(=N)N)C(=O)O; Tridecanoyl = CCCCCCCCCCCCC(=O)*; hArg = N=C(N)NCCCC[C@H](N)C(=O)O; Cha = N[C@@H](CC1CCCCC1)C(=O)O; Nle = CCCC[C@H](N)C(=O)O; AEEA = NCCOCCOCC(=O)O; Aib = CC(C)(N)C(=O)O; Mpa = O=C(O)CCS
B1: modified apelin polypeptide SEQ ID NO: 346 (peptide)
peptide: Tridecanoyl-[γGlu][AEEA][AEEA]RQRPK[Cha]AA[Nle]G[Oic][Nle]P[Phe(4-Cl)]-OH
SMILES: CCCCCCCCCCCCC(=O)N[C@@H](CCC(=O)NCCOCCOCC(=O)NCCOCCOCC(=O)N[C@@H](CCCNC(=N)N)C(=O)N[C@@H](CCC(N)=O)C(=O)N[C@@H](CCCNC(=N)N)C(=O)N1CCC[C@H]1C(=O)N[C@@H](CCCCN)C(=O)N[C@@H](CC1CCCCC1)C(=O)N[C@@H](C)C(=O)N[C@@H](C)C(=O)N[C@@H](CCCC)C(=O)NCC(=O)N1[C@H](C(=O)N[C@@H](CCCC)C(=O)N2CCC[C@H]2C(=O)N[C@@H](Cc2ccc(Cl)cc2)C(=O)O)C[C@@H]2CCCC[C@@H]21)C(=O)O
B2: modified apelin polypeptide SEQ ID NO: 341 (peptide)
peptide: Tridecanoyl-[γGlu][AEEA][AEEA]RQRPK[Cha]SA[Nle]G[Oic][Nle]P[Phe(4-Cl)]-OH
SMILES: CCCCCCCCCCCCC(=O)N[C@@H](CCC(=O)NCCOCCOCC(=O)NCCOCCOCC(=O)N[C@@H](CCCNC(=N)N)C(=O)N[C@@H](CCC(N)=O)C(=O)N[C@@H](CCCNC(=N)N)C(=O)N1CCC[C@H]1C(=O)N[C@@H](CCCCN)C(=O)N[C@@H](CC1CCCCC1)C(=O)N[C@@H](CO)C(=O)N[C@@H](C)C(=O)N[C@@H](CCCC)C(=O)NCC(=O)N1[C@H](C(=O)N[C@@H](CCCC)C(=O)N2CCC[C@H]2C(=O)N[C@@H](Cc2ccc(Cl)cc2)C(=O)O)C[C@@H]2CCCC[C@@H]21)C(=O)O
B3: modified apelin polypeptide SEQ ID NO: 337 (peptide)
peptide: Tridecanoyl-[γGlu][AEEA][AEEA]RQRPK[Cha]SH[Nle]G[Oic][Nle]P[Phe(4-Cl)]-OH
SMILES: CCCCCCCCCCCCC(=O)N[C@@H](CCC(=O)NCCOCCOCC(=O)NCCOCCOCC(=O)N[C@@H](CCCNC(=N)N)C(=O)N[C@@H](CCC(N)=O)C(=O)N[C@@H](CCCNC(=N)N)C(=O)N1CCC[C@H]1C(=O)N[C@@H](CCCCN)C(=O)N[C@@H](CC1CCCCC1)C(=O)N[C@@H](CO)C(=O)N[C@@H](Cc1c[nH]cn1)C(=O)N[C@@H](CCCC)C(=O)NCC(=O)N1[C@H](C(=O)N[C@@H](CCCC)C(=O)N2CCC[C@H]2C(=O)N[C@@H](Cc2ccc(Cl)cc2)C(=O)O)C[C@@H]2CCCC[C@@H]21)C(=O)O
B4: modified apelin polypeptide SEQ ID NO: 539 (peptide)
peptide: Tridecanoyl-[γGlu][PEG12][dQ]RP[NMeR][Cha]SHKG[Oic][Nle][Aib][Phe(4-Cl)]-OH
SMILES: CCCCCCCCCCCCC(=O)N[C@@H](CCC(=O)NCCOCCOCCOCCOCCOCCOCCOCCOCCOCCOCCOCCOCCC(=O)N[C@H](CCC(N)=O)C(=O)N[C@@H](CCCNC(=N)N)C(=O)N1CCC[C@H]1C(=O)N(C)[C@@H](CCCNC(=N)N)C(=O)N[C@@H](CC1CCCCC1)C(=O)N[C@@H](CO)C(=O)N[C@@H](Cc1c[nH]cn1)C(=O)N[C@@H](CCCCN)C(=O)NCC(=O)N1[C@H](C(=O)N[C@@H](CCCC)C(=O)NC(C)(C)C(=O)N[C@@H](Cc2ccc(Cl)cc2)C(=O)O)C[C@@H]2CCCC[C@@H]21)C(=O)O
B5: modified apelin polypeptide SEQ ID NO: 507 (peptide)
peptide: XXQRPRLSHKGPXPF
modifications: {TDA} [Aeea] [Aeea] Q R P [NMeArg] L S H K G P [Nle] P [4-Cl-F] {COOH}: N-terminal tridecanoyl (TDA)-Aeea-Aeea; NMeArg, Nle, 4-Cl-F non-canonical; free C-terminal acid
B6: modified apelin polypeptide SEQ ID NO: 538 (peptide)
peptide: Tridecanoyl-[dD][AEEA][AEEA][dQ]RP[NMeR][Cha]SHKG[Oic][Nle][Aib][Phe(4-Cl)]-OH
SMILES: CCCCCCCCCCCCC(=O)N[C@H](CC(=O)O)C(=O)NCCOCCOCC(=O)NCCOCCOCC(=O)N[C@H](CCC(N)=O)C(=O)N[C@@H](CCCNC(=N)N)C(=O)N1CCC[C@H]1C(=O)N(C)[C@@H](CCCNC(=N)N)C(=O)N[C@@H](CC1CCCCC1)C(=O)N[C@@H](CO)C(=O)N[C@@H](Cc1c[nH]cn1)C(=O)N[C@@H](CCCCN)C(=O)NCC(=O)N1[C@H](C(=O)N[C@@H](CCCC)C(=O)NC(C)(C)C(=O)N[C@@H](Cc2ccc(Cl)cc2)C(=O)O)C[C@@H]2CCCC[C@@H]21
B7: modified apelin polypeptide SEQ ID NO: 537 (peptide)
peptide: Tridecanoyl-E[AEEA][AEEA][dQ]RP[NMeR][Cha]SHKG[Oic][Nle][Aib][Phe(4-Cl)]-OH
SMILES: CCCCCCCCCCCCC(=O)N[C@@H](CCC(=O)O)C(=O)NCCOCCOCC(=O)NCCOCCOCC(=O)N[C@H](CCC(N)=O)C(=O)N[C@@H](CCCNC(=N)N)C(=O)N1CCC[C@H]1C(=O)N(C)[C@@H](CCCNC(=N)N)C(=O)N[C@@H](CC1CCCCC1)C(=O)N[C@@H](CO)C(=O)N[C@@H](Cc1c[nH]cn1)C(=O)N[C@@H](CCCCN)C(=O)NCC(=O)N1[C@H](C(=O)N[C@@H](CCCC)C(=O)NC(C)(C)C(=O)N[C@@H](Cc2ccc(Cl)cc2)C(=O)O)C[C@@H]2CCCC[C@@H]21
B8: modified apelin polypeptide SEQ ID NO: 547 (peptide)
peptide: Tridecanoyl-[dE][AEEA][AEEA][dQ]RP[NMeR][Cha]SHKG[Oic][Nle][Aib][Phe(4-Cl)]-OH
SMILES: CCCCCCCCCCCCC(=O)N[C@H](CCC(=O)O)C(=O)NCCOCCOCC(=O)NCCOCCOCC(=O)N[C@H](CCC(N)=O)C(=O)N[C@@H](CCCNC(=N)N)C(=O)N1CCC[C@H]1C(=O)N(C)[C@@H](CCCNC(=N)N)C(=O)N[C@@H](CC1CCCCC1)C(=O)N[C@@H](CO)C(=O)N[C@@H](Cc1c[nH]cn1)C(=O)N[C@@H](CCCCN)C(=O)NCC(=O)N1[C@H](C(=O)N[C@@H](CCCC)C(=O)NC(C)(C)C(=O)N[C@@H](Cc2ccc(Cl)cc2)C(=O)O)C[C@@H]2CCCC[C@@H]21
B9: modified apelin polypeptide SEQ ID NO: 532 (peptide)
peptide: Tridecanoyl-[γGlu][dQ]RP[NMeR][Cha]SHKG[Oic][Nle][Aib][Phe(4-Cl)]-OH
SMILES: CCCCCCCCCCCCC(=O)N[C@@H](CCC(=O)N[C@H](CCC(N)=O)C(=O)N[C@@H](CCCNC(=N)N)C(=O)N1CCC[C@H]1C(=O)N(C)[C@@H](CCCNC(=N)N)C(=O)N[C@@H](CC1CCCCC1)C(=O)N[C@@H](CO)C(=O)N[C@@H](Cc1c[nH]cn1)C(=O)N[C@@H](CCCCN)C(=O)NCC(=O)N1[C@H](C(=O)N[C@@H](CCCC)C(=O)NC(C)(C)C(=O)N[C@@H](Cc2ccc(Cl)cc2)C(=O)O)C[C@@H]2CCCC[C@@H]21)C(=O)O
B10: modified apelin polypeptide SEQ ID NO: 511 (peptide)
peptide: XXXQRPRLSHKGPXPF
modifications: {TetDDA} [AC4Abu] [Aeea] [Aeea] Q R P [NMeArg] L S H K G P [Nle] P [4-Cl-F] {COOH}: N-terminal tetradecanedioyl (TetDDA)-gammaGlu (AC4Abu)-Aeea-Aeea; NMeArg, Nle, 4-Cl-F non-canonical; free C-terminal acid
B11: Acetylated version of peptide in Fc-peptide conjugate #1 (SEQ ID NO: 70) (peptide)
peptide: QRPRLSHKGPXPF
modifications: {Acetyl-NH}Q[r]P[hArg][aMeLeu]SHKGP[Nle] P[4-Cl-F]{COOH}: N-terminal acetyl; r = D-Arg; hArg, aMeLeu, Nle, 4-Cl-F non-canonical; free C-terminal acid
B12: Acetylated version of peptide in Fc-peptide conjugate #3 (SEQ ID NO: 95) (peptide)
peptide: QRPRLSHKGPXPF
modifications: {Acetyl-NH}Q[NMehArg]P[NMeArg][aMeLeu]SHKGP[Nle]P[4-Cl-F]{COOH: N-terminal acetyl; NMehArg, NMeArg, aMeLeu, Nle, 4-Cl-F non-canonical; free C-terminal acid

Target: T1, human APJ receptor (human, UniProt P35414 1-380)
T1 sequence (looked up): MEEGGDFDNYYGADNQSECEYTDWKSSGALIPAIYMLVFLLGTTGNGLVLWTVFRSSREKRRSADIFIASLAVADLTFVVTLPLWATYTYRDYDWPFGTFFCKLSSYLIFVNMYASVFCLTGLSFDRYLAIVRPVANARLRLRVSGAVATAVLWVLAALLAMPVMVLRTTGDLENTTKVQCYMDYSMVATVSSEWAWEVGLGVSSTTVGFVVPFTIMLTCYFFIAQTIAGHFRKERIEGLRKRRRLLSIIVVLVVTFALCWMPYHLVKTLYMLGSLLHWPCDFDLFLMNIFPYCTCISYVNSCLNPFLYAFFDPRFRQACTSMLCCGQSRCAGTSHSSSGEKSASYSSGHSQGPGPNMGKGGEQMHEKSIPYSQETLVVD
Test: cell-based or functional assay

Binder	EC50 Human APJ Receptor [nM]
{20K mPEGacetamide}-[Mpa]RQRP[hArg][Cha]SHKG[Oic][Nle]P[Phe(4-Cl)]-OH (numbers in words are those of the source; also: 20 kDa PEG conjugate) [apelin polypeptide SEQ ID NO: 100]	8.06

Target: T2, rat APJ receptor (rat, UniProt Q9JHG3 1-377)
T2 sequence (looked up): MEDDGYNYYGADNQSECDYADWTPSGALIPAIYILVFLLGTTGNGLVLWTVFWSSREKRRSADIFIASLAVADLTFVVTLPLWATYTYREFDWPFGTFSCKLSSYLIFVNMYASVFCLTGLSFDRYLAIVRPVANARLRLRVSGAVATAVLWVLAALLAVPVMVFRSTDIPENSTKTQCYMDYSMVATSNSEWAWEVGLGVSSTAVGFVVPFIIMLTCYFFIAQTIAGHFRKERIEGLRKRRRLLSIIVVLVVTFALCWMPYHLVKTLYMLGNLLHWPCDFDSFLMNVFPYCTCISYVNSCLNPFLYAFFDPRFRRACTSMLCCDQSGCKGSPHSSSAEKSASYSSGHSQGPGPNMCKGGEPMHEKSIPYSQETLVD
Test: cell-based or functional assay

Binder	EC50 Rat APJ Receptor [nM]
{20K mPEGacetamide}-[Mpa]RQRP[hArg][Cha]SHKG[Oic][Nle]P[Phe(4-Cl)]-OH (numbers in words are those of the source; also: 20 kDa PEG conjugate) [apelin polypeptide SEQ ID NO: 100]	45.4

Target: T3, human APJ receptor (human, UniProt P35414 1-380)
T3 sequence (looked up): T1 sequence (looked up)
Test: cell-based or functional assay

Binder	EC50 Human APJ Receptor (µM), GTPγS assay [µM]
B1	0.00277
B2	0.000561
B3	0.00208
B4	0.000735
B5	7.95e-05
B6	0.000525
Tridecanoyl-D[AEEA][AEEA][dQ]RP[NMeR][Cha]SHKG[Oic][Nle][Aib][Phe(4-Cl)]-OH [modified apelin polypeptide SEQ ID NO: 546]	0.000478
B7	0.00028
B8	0.000404

Target: T4, rat APJ receptor (rat, UniProt Q9JHG3 1-377)
T4 sequence (looked up): T2 sequence (looked up)
Test: cell-based or functional assay

Binder	EC50 Rat APJ Receptor (µM), GTPγS assay [µM]
B1	0.00246
B2	0.00127
B3	0.00212
B4	0.00354
B9	0.00299
B5	0.000245
B6	0.00189
Tridecanoyl-D[AEEA][AEEA][dQ]RP[NMeR][Cha]SHKG[Oic][Nle][Aib][Phe(4-Cl)]-OH [modified apelin polypeptide SEQ ID NO: 546]	0.00123
B7	0.00108
B8	0.00133
B10	0.000968

Target: T3, human APJ receptor
Test: cell-based or functional assay
Remark: another data set of the same source

Binder	EC50 Human APJ Receptor (µM), GTPγS assay [µM]
Ac-QRP[NMeR][Cha]SHKG[Oic][Nle][Aib][Phe(4-Cl)]-OH [Acetylated version of peptide in Fc-peptide conjugate #4 (SEQ ID NO: 92)]	0.000679

Target: T4, rat APJ receptor
Test: cell-based or functional assay
Remark: another data set of the same source

Binder	EC50 Rat APJ Receptor (µM), GTPγS assay [µM]
B11	0.00974
B12	0.00393
Ac-QRP[NMeR][Cha]SHKG[Oic][Nle][Aib][Phe(4-Cl)]-OH [Acetylated version of peptide in Fc-peptide conjugate #4 (SEQ ID NO: 92)]	0.00323

Reference: patent US10941182 (Amgen, dated 2021)
